Tests used:
[1] = target: β-tubulin (human (endogenous in VTC-001 and VTC-037 GSCs)) (UniProt P07437); assay: cellular thermal shift assay (CETSA); fresh VTC-037 GSC lysates in non-denaturing buffer treated 1 h with 3-fold dilutions (222.2, 74.0, 24.7, 8.2 and 2.7 nM) of peptide, heat challenge at 57 °C for 20 min, centrifugation, immunoblot of the stable protein normalised to DMSO control; EC50 of target engagement
[2] = target: α-tubulin (human (endogenous in VTC-037 GSCs)) (UniProt P68363); assay: as above
Sequence of α-tubulin (human (endogenous in VTC-037 GSCs)) (P68363 whole entry): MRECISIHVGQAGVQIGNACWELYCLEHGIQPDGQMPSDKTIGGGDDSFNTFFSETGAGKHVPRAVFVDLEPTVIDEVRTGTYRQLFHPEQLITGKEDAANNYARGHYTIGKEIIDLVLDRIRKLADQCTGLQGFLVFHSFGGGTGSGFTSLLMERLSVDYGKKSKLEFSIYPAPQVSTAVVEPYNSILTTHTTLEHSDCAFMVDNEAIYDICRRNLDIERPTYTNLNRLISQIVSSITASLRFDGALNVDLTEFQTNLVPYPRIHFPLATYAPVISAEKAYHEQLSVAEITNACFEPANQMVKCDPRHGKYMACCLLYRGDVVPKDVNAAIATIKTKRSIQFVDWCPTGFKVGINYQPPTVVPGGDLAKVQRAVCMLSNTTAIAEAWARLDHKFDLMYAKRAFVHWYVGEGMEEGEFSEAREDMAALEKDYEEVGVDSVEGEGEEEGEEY

Sequence of β-tubulin (human (endogenous in VTC-001 and VTC-037 GSCs)) (P07437 whole entry): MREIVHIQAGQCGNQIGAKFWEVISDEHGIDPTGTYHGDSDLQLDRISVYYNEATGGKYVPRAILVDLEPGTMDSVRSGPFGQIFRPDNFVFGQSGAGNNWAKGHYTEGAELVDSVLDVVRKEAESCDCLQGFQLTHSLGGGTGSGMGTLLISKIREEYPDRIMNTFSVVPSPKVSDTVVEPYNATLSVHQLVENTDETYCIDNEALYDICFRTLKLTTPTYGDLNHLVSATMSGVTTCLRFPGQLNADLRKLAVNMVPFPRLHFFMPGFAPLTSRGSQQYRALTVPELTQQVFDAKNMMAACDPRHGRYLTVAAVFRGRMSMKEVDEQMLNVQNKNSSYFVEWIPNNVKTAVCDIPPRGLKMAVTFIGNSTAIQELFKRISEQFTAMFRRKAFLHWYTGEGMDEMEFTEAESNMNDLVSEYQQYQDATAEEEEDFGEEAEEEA

EC50 [1]: 7.9 nM
EC50 [2]: 8.4 nM
Substance: JM2 (juxtamembrane 2) peptide

Reference: publication PMC12084297, “Cytoplasmic connexin43-microtubule interactions promote glioblastoma stem-like cell maintenance and tumorigenicity” (Cell Death & Disease, 2025)
